# Reference: paper PMC12199146
# Molecular target: T1, Endonuclease V (EcEndoV), wild-type (Escherichia coli) (UniProt P68739)
# T1 sequence: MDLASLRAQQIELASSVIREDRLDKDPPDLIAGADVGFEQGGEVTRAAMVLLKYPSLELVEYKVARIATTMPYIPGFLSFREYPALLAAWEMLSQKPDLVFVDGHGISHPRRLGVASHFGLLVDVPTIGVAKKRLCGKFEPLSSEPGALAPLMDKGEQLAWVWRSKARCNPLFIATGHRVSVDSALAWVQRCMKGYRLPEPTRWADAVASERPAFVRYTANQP
# Assay: EMSA
# Settings: 5 mM Mg2+; pattern similar to A-RNA; one inosine; EMSA: 25 mM sodium phosphate pH 6.5, 50-300 mM NaCl (500 mM in Fig. S17E), 1 mM DTT, 5 mM MgCl2, 30 min on ice, 2 pmol RNA in 10 ul, 12% native gel in TBE at …
substance,measurement,value
"1I-RNA (single-edited 20-mer dsRNA, one I:U pair)",binding signal (fold KD vs I-RNA),2
